{"source": "paper PMC8096265", "about": "“A functional LSD1 coregulator screen reveals a novel transcriptional regulatory cascade connecting R-loop homeostasis with epigenetic regulation” (Nucleic Acids Research, 2021)", "molecules": {"B1": {"name": "DDX19A: DEAD-box helicase 19A; recombinant GST-tagged for in vitro tests, endogenous in S9.6 IP (protein, UniProt Q9NUU7 2-478, looked up)", "ATP-dependent RNA helicase …": "ATDSWALAVDEQEAAVKSMTNLQIKEEKVKADTNGIIKTSTTAEKTDEEEKEDRAAQSLLNKLIRSNLVDNTNQVEVLQRDPNSPLYSVKSFEELRLKPQLLQGVYAMGFNRPSKIQENALPMMLAEPPQNLIAQSQSGTGKTAAFVLAMLSRVEPSDRYPQCLCLSPTYELALQTGKVIEQMGKFYPELKLAYAVRGNKLERGQKISEQIVIGTPGTVLDWCSKLKFIDPKKIKVFVLDEADVMIATQGHQDQSIRIQRMLPRNCQMLLFSATFEDSVWKFAQKVVPDPNVIKLKREEETLDTIKQYYVLCSSRDEKFQALCNLYGAITIAQAMIFCHTRKTASWLAAELSKEGHQVALLSGEMMVEQRAAVIERFREGKEKVLVTTNVCARGIDVEQVSVVINFDLPVDKDGNPDNETYLHRIGRTGRFGKRGLAVNMVDSKHSMNILNRIQEHFNKKIERLDTDDLDEIEKIAN", "modifications": "GST tag", "notes": "DEAD-box helicase 19A; recombinant GST-tagged for in vitro tests, endogenous in S9.6 IP"}}, "key": {"RNA:DNA hybrid": {"tested_on": "RNA:DNA hybrid", "assay": "RNA:DNA unwinding assay", "format": "biochemical", "conditions": "4.79 μM recombinant DDX19A, 1 nM Cy-5-labeled RNA:DNA hybrid, 4 mM ATP, 30°C, 60 min, pH 7.5", "method": "RNA:DNA unwinding assay was performed as described ([54]). In brief: RNA:DNA hybrids were annealed in vitro in 5 mM Tris/HCl pH 8.5. The sequence of the top RNA strand was: 5′‐[…]‐3′, and the sequence of the bottom DNA strand was 5′-[…]‐3′. The annealed RNA:DNA hybrid has a 5′ ssDNA overhang and is labeled with Cy-5. Unwinding experiments were carried out at 30°C for 60 min in 30 mM Tris–HCl (pH 7.5), 50 mM NaCl, 5 mM MgCl2, 2 mM DTT, 0.01% NP‐40, 0.1 mg/ml BSA, 4 mM ATP, 1 nM Cy-5‐labeled RNA:DNA hybrid substrate, in the presence of 4.79 μM recombinant DDX19A. The reaction was stopped by the addition of SDS to a final concentration of 0.5% and 20 ng proteinase K (20 mg/ml). The reaction was afterward loaded onto a 10% non-denaturing polyacrylamide gel and analysed using a FusionFX detection system (VILBER)."}, "[1]": {"tested_on": "R-loops from NIH/3T3 cell lysate", "assay": "S9.6 antibody IP, co-precipitation of LSD1 and DDX19A", "format": "cell-based, murine", "conditions": "NIH/3T3 whole cell lysate, Western blot", "method": "100 μl Dynabeads® Protein G were pre-blocked with 0.5% BSA/PBS for 2 h at 4°C. 10 × 10^6 non-crosslinked NIH/3T3 cells were harvested, washed once in 1× PBS and lysed in 1 ml Cell Lysis Buffer (85 mM KCl, 5 mM HEPES pH 8, 0.5% NP-40, cOmplete™ EDTA-free PIC) for 15 min on ice. Nuclei were collected by spinning 1 min at 15 000 × g, 4°C. The pellet was resuspended in 750 μl RSB buffer (10 mM Tris–HCl pH 7.5, 200 mM NaCl, 2.5 mM MgCl2, cOmplete™ EDTA-free PIC) supplemented with 0.2% sodium-deoxycholate, 0.1% SDS, 0.05% sodium-lauroyl-sarcosinate and 0.5% Triton X-100. Cells were sonicated for 4 min in an EpiShear Probe Sonicator (20 s pulse, 30 s pause, 40%). After taking 5% as input, samples were transferred to a 15 ml falcon tube and diluted 1:4 by addition of 2.3 ml RSB with 0.5% Triton X-100 (RSB+T). The samples were subjected to pre-clearing with 5 μg mouse IgG and 35 μl Dynabeads® Protein G for 1 h at 4°C. Magnetic beads were locked and the supernatant was split into three Eppendorf tubes. For the S9.6 antibody-specificity control, 40 U of RNAse H (NEB) were added to one of the tubes and all samples were incubated for 10 min at 37°C before adding the IP antibodies. The samples were subjected to IP with 4 μg of either the S9.6 antibody or mouse IgG and 32 μl pre-blocked beads per sample. 10 ng RNase A was added to each tube before rotating at 4°C for 2.5 h. […]"}}, "data": [{"molecule": "B1", "values": [{"measurement": "ability to resolve RNA:DNA hybrids in vitro", "setting": "RNA:DNA hybrid", "value": "confirmed its ability to resolve RNA:DNA hybrids in vitro"}, {"measurement": "association with R-loops (co-precipitation with S9.6)", "setting": "[1]", "value": "strong physical association"}]}]}
